Data taken from US20220298235A1 (AKESO BIOPHARMA, published 2022).

T1: Human IL12 (His Tag) (human, UniProt P29459 23-219; P29460 23-328)
T1 construct: Bought His-tagged heterodimer
T1 sequence (looked up) 1: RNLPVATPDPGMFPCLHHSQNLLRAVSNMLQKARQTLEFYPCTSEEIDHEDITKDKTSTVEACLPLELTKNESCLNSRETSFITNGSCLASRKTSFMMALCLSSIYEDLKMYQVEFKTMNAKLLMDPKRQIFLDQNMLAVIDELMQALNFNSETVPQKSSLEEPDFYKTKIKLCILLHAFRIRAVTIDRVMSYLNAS
T1 sequence (looked up) 2: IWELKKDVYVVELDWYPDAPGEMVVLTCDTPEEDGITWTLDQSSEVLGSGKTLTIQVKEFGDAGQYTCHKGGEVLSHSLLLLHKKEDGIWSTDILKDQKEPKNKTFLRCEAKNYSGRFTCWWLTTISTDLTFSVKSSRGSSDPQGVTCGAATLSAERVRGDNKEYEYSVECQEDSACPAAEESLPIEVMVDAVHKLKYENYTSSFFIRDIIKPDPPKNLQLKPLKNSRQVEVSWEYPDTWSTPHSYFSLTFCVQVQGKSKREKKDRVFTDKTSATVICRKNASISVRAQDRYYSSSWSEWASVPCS

T2: human IL-23 (IL-23-His-Biotin) (human, UniProt Q9NPF7 20-189; P29460 23-328, biotin label, site not stated)
T2 construct: Akesobio lot 20161209; His-tagged and biotinylated
T2 sequence (looked up) 1: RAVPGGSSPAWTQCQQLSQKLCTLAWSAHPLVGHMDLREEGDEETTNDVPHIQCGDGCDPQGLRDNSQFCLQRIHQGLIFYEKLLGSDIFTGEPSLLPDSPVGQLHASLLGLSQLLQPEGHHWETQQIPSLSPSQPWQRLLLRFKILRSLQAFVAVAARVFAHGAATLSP
T2 sequence (looked up) 2: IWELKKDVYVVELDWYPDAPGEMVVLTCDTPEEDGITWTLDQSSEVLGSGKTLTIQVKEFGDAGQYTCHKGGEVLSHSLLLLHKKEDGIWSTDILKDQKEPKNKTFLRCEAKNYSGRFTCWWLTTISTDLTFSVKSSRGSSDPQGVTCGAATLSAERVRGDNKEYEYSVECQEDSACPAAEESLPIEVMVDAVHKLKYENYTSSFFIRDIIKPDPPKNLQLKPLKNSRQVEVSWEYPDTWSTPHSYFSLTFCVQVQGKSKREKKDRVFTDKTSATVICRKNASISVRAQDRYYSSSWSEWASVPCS


Tests used:
Human IL12 (His Tag) [1] = target: T1, Human IL12 (His Tag); experiment: FACS competition, IL-12-His 20 nM on 293T-IL-12Rβ1&IL-23R cells; antibody 30 µg/mL
Experimental: (§1) 200 μL of 1% PBSA was added into each sample, and the mixture was centrifuged at 700×g for 5 min to discard the supernatant. According to experiment design, correspondingly diluted antibody (highest final concentration of 30 μg/mL, 3-fold dilution, 8 concentrations in total) and human IL-12 (Sino Biological, Cat. No.: CT-050-H08H-20) (final concentration of 20 nM) were mixed at a ratio of 1:1, and a blank control was set. The mixture of antibody and human IL12 was incubated on ice for 30 min and then added to the cell precipitate at 100 μL/sample. The resulting mixture was well mixed and incubated on ice for 60 min 200 μL of 1% PBSA was added, and the mixture was centrifuged at 700×g for 5 min to discard the supernatant, and then washed twice. Alexa Fluor® 488 anti-His tag antibody (Biolegend, Cat. No.: 652509) was diluted at a ratio of 1:400 and added to each tube at 100 μL. The mixture was well mixed and incubated on ice for 40 min in the absence of light. 200 μL of 1% PBSA was added, and the mixture was centrifuged at 700×g for 5 min to discard the supernatant, and then washed twice. 1% PBSA was added at 200 μL/tube, and the cells were resuspended and transferred to a flow cytometry tube for testing.

Human IL12 (His Tag) [2] = target: T1, Human IL12 (His Tag); experiment: FACS competition, IL-12-His 20 nM on 293T-IL-12Rβ1&IL-23R cells; antibody 0.01 µg/mL
Experimental: as §1

Human IL12 (His Tag) [3] = target: T1, Human IL12 (His Tag); experiment: FACS competition, IL-12-His 20 nM on 293T-IL-12Rβ1&IL-23R cells; antibody 0.37 µg/mL
Experimental: as §1

Human IL12 (His Tag) [4] = target: T1, Human IL12 (His Tag); experiment: FACS competition, IL-12-His 20 nM on 293T-IL-12Rβ1&IL-23R cells; antibody 1.11 µg/mL
Experimental: as §1

[5] = target: T2, human IL-23 (IL-23-His-Biotin); experiment: FACS competition, IL-23-His-Biotin 2 µg/mL on 293T-IL-12Rβ1&IL-23R cells; antibody 10 µg/mL
Experimental: (§2) 200 μL of 1% PBSA was added into each sample, and the mixture was centrifuged at 700×g for 5 min to discard the supernatant. According to experiment design, correspondingly diluted antibody (highest final concentration of 30 μg/mL, 3-fold dilution, 8 concentrations in total) and human IL-23 (IL-23-His-Biotin, Akesobio, 20161209) (final concentration of 2 μg/mL) were mixed at a ratio of 1:1, and a blank control was set. The mixture of antibody and human IL23 was incubated on ice for 30 min and then added to the cell precipitate at 100 μL/sample. The resulting mixture was well mixed and incubated on ice for 60 min. 200 μL of 1% PBSA was added, and the mixture was centrifuged at 700×g for 5 min to discard the supernatant, and then washed twice. FITC Steptavidin (Biolegend, Cat. No.: 405202) was diluted at a ratio of 1:500 and added to each tube at 100 μL. The mixture was well mixed and incubated on ice for 40 min in the absence of light. 200 μL of 1% PBSA was added, and the mixture was centrifuged at 700×g for 5 min to discard the supernatant, and then washed twice. 1% PBSA was added at 200 μL/tube, and the cells were resuspended and transferred to a flow cytometry tube for testing.

[6] = target: T2, human IL-23 (IL-23-His-Biotin); experiment: FACS competition, IL-23-His-Biotin 2 µg/mL on 293T-IL-12Rβ1&IL-23R cells; antibody 30 µg/mL
Experimental: as §2

[7] = target: T2, human IL-23 (IL-23-His-Biotin); experiment: FACS competition, IL-23-His-Biotin 2 µg/mL on 293T-IL-12Rβ1&IL-23R cells; antibody 0.01 µg/mL
Experimental: as §2

[8] = target: T2, human IL-23 (IL-23-His-Biotin); experiment: FACS competition, IL-23-His-Biotin 2 µg/mL on 293T-IL-12Rβ1&IL-23R cells; antibody 0.12 µg/mL
Experimental: as §2

[9] = target: T2, human IL-23 (IL-23-His-Biotin); experiment: FACS competition, IL-23-His-Biotin 2 µg/mL on 293T-IL-12Rβ1&IL-23R cells; antibody 3.33 µg/mL
Experimental: as §2

| Binder | MFI (Human IL12 (His Tag) [1]) | MFI (Human IL12 (His Tag) [2]) | MFI (Human IL12 (His Tag) [3]) | MFI (Human IL12 (His Tag) [4]) | MFI [5] | MFI [6] | MFI [7] | MFI [8] | MFI [9] |
| --- | --- | --- | --- | --- | --- | --- | --- | --- | --- |
| ustekinumab (antibody, V domains shown) VH: EVQLVQSGAEVKKPGESLKISCKGSGYSFTTYWLGWVRQMPGKGLDWIGIMSPVDSDIRYSPSFQGQVTMSVDKSITTAYLQWNSLKASDTAMYYCARRRPGQGYFDFWGQGTLVTVSS VL: DIQMTQSPSSLSASVGDRVTITCRASQGISSWLAWYQQKPEKAPKSLIYAASSLQSGVPSRFSGSGSGTDFTLTISSLQPEDFATYYCQQYNIYPYTFGQGTKLEIK | 28.7 MFI | 160 MFI | 95.7 MFI | 31.9 MFI | 11.5 MFI | 9.64 MFI | 219 MFI | 211 MFI | 13.8 MFI |
| H5L10 (antibody, human IgG1, kappa, V domains shown, human IgG1 / kappa constant regions; also called humanized antibody H5L10) VH: EVQLVQSGAEVKKPGESLKISCQSSGYSFTTYWIGWVRQMPGQGLEWIGIMSPVDSDIRYNPMFRGQVTMSVDKSSSTAYLQWSSLKASDTAMYYCARRRPGQGYFDFWGQGTMVTVSS VL: EIVLTQSPATLSASPGERATISCRASQSVGSWLAWYQQKPGQAPRSLIYAASNLQSGIPARFSGSGSGTDFTLTISSLEPEDFAVYYCQQYNIYPYTFGQGTRLEIKR | 31.6 MFI | 163 MFI | 87.5 MFI | 44.6 MFI | 12.7 MFI | 11.9 MFI | 223 MFI | 221 MFI | 15.7 MFI |
| H5L9 (antibody, human IgG1, kappa, V domains shown, human IgG1 (P01857) / kappa (P01834) constant regions; also called humanized antibody H5L9) VH: EVQLVQSGAEVKKPGESLKISCQSSGYSFTTYWIGWVRQMPGQGLEWIGIMSPVDSDIRYNPMFRGQVTMSVDKSSSTAYLQWSSLKASDTAMYYCARRRPGQGYFDFWGQGTMVTVSS VL: DIQMTQSPSSLSASVGDRVTITCKASQNVGSWLAWYQQKPGKAPKSLIYSASSRQSGVPSRFSGSGSGTDFTLTISSLQPEDFATYYCQQYDIYPFTFGQGTKLEIKR | 117 MFI | 169 MFI | 159 MFI | 157 MFI | 136 MFI | 104 MFI | 222 MFI | 217 MFI | 153 MFI |
| H5L12 (antibody, human IgG1, kappa, V domains shown, human IgG1 / kappa constant regions; also called humanized antibody H5L12) VH: EVQLVQSGAEVKKPGESLKISCQSSGYSFTTYWIGWVRQMPGQGLEWIGIMSPVDSDIRYNPMFRGQVTMSVDKSSSTAYLQWSSLKASDTAMYYCARRRPGQGYFDFWGQGTMVTVSS VL: EIVLTQSPATLSASPGERATISCRASQSVSSWLAWYQQKPGQAPRSLIYAASNRQSGIPARFSGSGSGTDFTLTISSLEPEDFAVYYCQQYNIYPYTFGQGTRLEIKR | 31.8 MFI | 161 MFI | 86.6 MFI | 38.5 MFI | 12.7 MFI | 12.3 MFI | 221 MFI | 211 MFI | 15.8 MFI |
| H5L14 (antibody, human IgG1, kappa, V domains shown, human IgG1 / kappa constant regions; also called humanized antibody H5L14) VH: EVQLVQSGAEVKKPGESLKISCQSSGYSFTTYWIGWVRQMPGQGLEWIGIMSPVDSDIRYNPMFRGQVTMSVDKSSSTAYLQWSSLKASDTAMYYCARRRPGQGYFDFWGQGTMVTVSS VL: EIVLTQSPATLSASPGERATISCRASQSVSSWLAWYQQKPGQAPRSLIYAASNLQSGIPARFSGSGSGTDFTLTISSLEPEDFAVYYCQQYNIYPFTFGQGTRLEIKR | 34.9 MFI | 149 MFI | 113 MFI | 66 MFI | 16.7 MFI | 14.1 MFI | 218 MFI | 203 MFI | 23.6 MFI |
| H5L11 (antibody, human IgG1, kappa, V domains shown, human IgG1 / kappa constant regions; also called humanized antibody H5L11) VH: EVQLVQSGAEVKKPGESLKISCQSSGYSFTTYWIGWVRQMPGQGLEWIGIMSPVDSDIRYNPMFRGQVTMSVDKSSSTAYLQWSSLKASDTAMYYCARRRPGQGYFDFWGQGTMVTVSS VL: EIVLTQSPATLSASPGERATISCRASQSVSSWLAWYQQKPGQAPRSLIYSASNLQSGIPARFSGSGSGTDFTLTISSLEPEDFAVYYCQQYNIYPYTFGQGTRLEIKR | 33 MFI | 166 MFI | 103 MFI | 54.3 MFI | 14.5 MFI | 12.9 MFI | 219 MFI | 219 MFI | 20.2 MFI |
